From patent publication US20240025993A1, “CD19 BINDING MOLECULES AND USES THEREOF” (NOVARTIS AG, priority 2020, published 2024)
Residue numbers refer to the chain shown, from its start.

B1: anti-CD3 antibody designated as CD3hi (antibody, V domains shown)
VH: EVQLVESGGGLVQPGGSLKLSCAASGFTFNTYAMNWVRQASGKGLEWVGRIRSKYNNYATYYADSVKDRFTISRDDSKSTLYLQMNSLKTEDTAVYYCVRHGNFGNSYVSWFAYWGQGTLVTVSS
VL: QAVVTQEPSLTVSPGGTVTLTCRSSTGAVTTSNYANWVQQKPGQAPRGLIGGTNKRAPWTPARFSGSLLGDKAALTLSGAQPEDEAEYFCALWYSNLWVFGGGTKLTVL
B2: anti-CD3 antibody designated as CD3lo (antibody, V domains shown)
VH: B1 VH with L81A
VL: B1 VL
B3: anti-CD3 antibody designated as CD3med (antibody, V domains shown)
VH: B1 VH with S79N, L81A, Y114H
VL: B1 VL with R23G, T31S, D71G, F89Y

Target: CD3-Fc
Assay: SPR (Biacore T200, 25 C), CD3-Fc captured on anti-hFc CM5 chip, antibody as analyte, 1:1 model

Kd [nM] | Binder
16 | B1
48 | B2
30 | B3
